Laboratory results as given in the supplement of paper PMC9428881.
± gives the standard error.

Experiment: background-corrected fluorescence of 3'-dye-labeled ssDNA relative to brightest sequence (3'-GCGCG) (fraction); higher = brighter dye fluorescence (less quenching)
How it was run: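 Fluorescence values are background-corrected using unlabeled oligos and expressed relative to the brightest sequence. The single-stranded DNA was made on glass slides by light-directed phosphoramidite synthesis, each of 1024 permuted pentamers ending beside a 3' Cy3 or Cy5 dye. Scans at 532 or 635 nm were taken before and after overnight ethylenediamine/ethanol deprotection, and each value averages 10 features per array and at least 3 syntheses.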

Sequence	background-corrected fluorescence (dye: Cy3 (3' terminal))	background-corrected fluorescence (dye: Cy5 (3' terminal))
TTTTTTCATGATCATGATGCTTTTTTTTTTTTTTTGCGCA [ACGCG]	0.714 ± 0.027	0.657 ± 0.043
TTTTTTCATGATCATGCGCATTTTTTTTTTTTTTTGCGAT [TAGCG]	0.5348 ± 0.0049	0.474 ± 0.037
TTTTTTCATGATCATGCTCATTTTTTTTTTTTTTTGCGAG [GAGCG]	0.608 ± 0.03	0.51 ± 0.085
TTTTTTCATGATCATGCTGATTTTTTTTTTTTTTTGCGAC [CAGCG]	0.518 ± 0.026	0.394 ± 0.023
TTTTTTCATGATCATGCTGCTTTTTTTTTTTTTTTGCGAA [AAGCG]	0.666 ± 0.028	0.525 ± 0.028
TTTTTTCATGATGAGCAGCATTTTTTTTTTTTTTTGCCTT [TTCCG]	0.489 ± 0.031	0.367 ± 0.035
TTTTTTCATGATGAGCATCATTTTTTTTTTTTTTTGCCTG [GTCCG]	0.481 ± 0.028	0.35 ± 0.021
TTTTTTCATGATGAGCATGATTTTTTTTTTTTTTTGCCTC [CTCCG]	0.354 ± 0.016	0.286 ± 0.06
TTTTTTCATGATGAGCATGCTTTTTTTTTTTTTTTGCCTA [ATCCG]	0.493 ± 0.016	0.366 ± 0.039
TTTTTTCATGATGATCAGCATTTTTTTTTTTTTTTGCCGT	0.651 ± 0.025	0.487 ± 0.022
TTTTTTCATGATGATCATCATTTTTTTTTTTTTTTGCCGG [GGCCG]	0.665 ± 0.025	0.564 ± 0.072
TTTTTTCATGATGATCATGATTTTTTTTTTTTTTTGCCGC [CGCCG]	0.549 ± 0.017	0.434 ± 0.033
TTTTTTCATGATGATCATGCTTTTTTTTTTTTTTTGCCGA [AGCCG]	0.621 ± 0.024	0.547 ± 0.034
TTTTTTCATGATGATGAGCATTTTTTTTTTTTTTTGCCCT [TCCCG]	0.449 ± 0.021	0.329 ± 0.019
TTTTTTCATGATGATGATCATTTTTTTTTTTTTTTGCCCG	0.488 ± 0.0067	0.394 ± 0.045
TTTTTTCATGATGATGATGATTTTTTTTTTTTTTTGCCCC [CCCCG]	0.32 ± 0.038	0.272 ± 0.012
TTTTTTCATGATGATGATGCTTTTTTTTTTTTTTTGCCCA [ACCCG]	0.479 ± 0.026	0.389 ± 0.058

Sequence	background-corrected fluorescence (dye: Cy3 (3' terminal))	background-corrected fluorescence (dye: Cy5 (3' terminal))
TTTTTTCATGATGATGCGCATTTTTTTTTTTTTTTGCCAT [TACCG]	0.516 ± 0.048	0.404 ± 0.029
TTTTTTCATGATGATGCTCATTTTTTTTTTTTTTTGCCAG [GACCG]	0.519 ± 0.015	0.384 ± 0.031
TTTTTTCATGATGATGCTGATTTTTTTTTTTTTTTGCCAC [CACCG]	0.393 ± 0.022	0.299 ± 0.015
TTTTTTCATGATGATGCTGCTTTTTTTTTTTTTTTGCCAA [AACCG]	0.504 ± 0.034	0.427 ± 0.041
TTTTTTCATGATGCGCAGCATTTTTTTTTTTTTTTGCATT [TTACG]	0.514 ± 0.018	0.395 ± 0.019
TTTTTTCATGATGCGCATCATTTTTTTTTTTTTTTGCATG [GTACG]	0.508 ± 0.023	0.385 ± 0.023
TTTTTTCATGATGCGCATGATTTTTTTTTTTTTTTGCATC [CTACG]	0.441 ± 0.025	0.288 ± 0.026
TTTTTTCATGATGCGCATGCTTTTTTTTTTTTTTTGCATA [ATACG]	0.574 ± 0.02	0.431 ± 0.024
TTTTTTCATGATGCTCAGCATTTTTTTTTTTTTTTGCAGT [TGACG]	0.607 ± 0.021	0.51 ± 0.055
TTTTTTCATGATGCTCATCATTTTTTTTTTTTTTTGCAGG [GGACG]	0.642 ± 0.025	0.516 ± 0.039
TTTTTTCATGATGCTCATGATTTTTTTTTTTTTTTGCAGC [CGACG]	0.508 ± 0.0059	0.402 ± 0.045
TTTTTTCATGATGCTCATGCTTTTTTTTTTTTTTTGCAGA [AGACG]	0.682 ± 0.017	0.552 ± 0.035
TTTTTTCATGATGCTGAGCATTTTTTTTTTTTTTTGCACT [TCACG]	0.482 ± 0.048	0.339 ± 0.024
TTTTTTCATGATGCTGATCATTTTTTTTTTTTTTTGCACG	0.548 ± 0.028	0.383 ± 0.035
TTTTTTCATGATGCTGATGATTTTTTTTTTTTTTTGCACC [CCACG]	0.391 ± 0.024	0.28 ± 0.022
TTTTTTCATGATGCTGATGCTTTTTTTTTTTTTTTGCACA [ACACG]	0.483 ± 0.025	0.375 ± 0.026
TTTTTTCATGATGCTGCGCATTTTTTTTTTTTTTTGCAAT [TAACG]	0.53 ± 0.018	0.406 ± 0.027
